Measurements as given in article PMC3171962.

Target: hisPcrH (Pseudomonas aeruginosa T3S chaperone PcrH with an N-terminal polyHis tag) (P. aeruginosa PAO1) (UniProt Q9I325)
Experiment: SEC

Substance	stoichiometry N
PopB (native, untagged P. aeruginosa T3S translocator) (from UniProt Q9I324 1-390) (natural protein)	1
PopD (native, untagged P. aeruginosa T3S translocator) (from UniProt Q9I323 1-295) (natural protein)	1
